Data reported in article PMC6675122, “N-terminal β-strand underpins biochemical specialization of an ATG8 isoform” (PLoS Biology, 2019).
“Also recorded” adds a separate entry of the source.

Test system: ATG8
Assay: in planta Co-IP, Vps4 with ATG8 (ATG8-2.2, ATG8-4, ATG8-4-S3)
Format: binding, Solanum tuberosum

B1: Vps4: potato vacuolar protein sorting 4; known as SKD1 in A. thaliana; ESCRT function (protein)
chain: MYSNFKEQAIEFVRQAVQEDNGGNYAKAFPLYMNALEYFKTHLKYEKNPKIKEAITQKFTEYLRRAEEIRAVLDEGGSGPGPNGGDAAVMAKPKTKPKDGEDGEDPEQSKLRAGLNSAIVREKPNVKWNDVAGLESAKQALQEAVILPVKFPQFFTGKRRPWRAFLLYGPPGTGKSYLAKAVATEAESTFFSVSSSDLVSKWMGESEKLVSNLFQMARESAPSIIFVDEIDSLCGQRGEGNESEASRRIKTELLVQMQGVGHNDDKVLVLAATNTPYALDQAIRRRFDKRIYIPLPDLKARQHMFKVHLGDTPHNLSESDFEDLARKTEGFSGSDVSVCVKDVLFEPVRKTQDAVFFTQTSNGTWIPCGPKQQGAVQTTMQELDAKGLASQIIPPPITKTDFDKVLARQRPTVSKSDLEVHDRFTKEFGEEG
Co-IP, ATG8-2.2, ATG8-4 and ATG8-4-S3
  dependence of Vps4 binding on the ATG8 first β-strand: the role of the N-terminal β-strand region in conferring binding to AIM-containing proteins was confirmed; also recorded: The ATG8 region surrounding the first β-strand is responsible for discriminatory binding to potato Vps4
Vps4:3xMyc co-expressed with GFP:ATG8 in N. benthamiana, anti-GFP IP, immunoblot
  interaction of Vps4 with ATG8: direct interaction between Vps4 and ATG8
